{"source": "paper PMC4197845", "key": {"[1]": {"target": "epidermal growth factor receptor on live cells (human (endogenous in UM-SCC-14C and A431)) (UniProt P00533)", "test": "radioligand binding"}, "[2]": {"target": "epidermal growth factor receptor on live cells (human (endogenous in UM-SCC-14C and A431)) (UniProt P00533)", "test": "radioligand binding", "remark": "listed apart in the source"}}, "note": "pKd: −log10 of the molar value. Where two headings read alike, the source gives them in different places.", "data": [{"substance": "bi-paratopic nanobody 9G8-7D12 (bispecific antibody)", "values": [{"measurement": "pKd", "setting": "[1]", "result": 8.12}, {"measurement": "pKd", "setting": "[2]", "result": 8.15}]}]}
